This note sets out measurements from publication PMC11040377, “Lymphocyte‐Activation Gene 3 Facilitates Pathological Tau Neuron‐to‐Neuron Transmission” (Advanced Science, 2024).

Experiment [1] deals with T1, Tau-biotin PFF (AD-Tau-induced Tau preformed fibrils, biotin-labelled) (human, UniProt P10636-8 1-441, biotin (Sulfo-NHS-LC-Biotin)).
T1 construct: Tau, human, WT isoform T40 (2N4R), 441 amino acid residues; Fibrillar assembly of many Tau chains; concentrations are monomer equivalents; also called Tau PFF; AD-Tau-induced Tau PFF-biotin; source: E. coli BL21(DE3), purified (HiTrap SP HP); fibrillised with AD-Tau seeds from AD brains, sonicated
Briefly: ELISA; Tau-biotin PFF and human recombinant LAG3; format not described in the text shown. Particulars: both partners purified. On the technique in general: In an ELISA, binding on a coated surface is turned into a signal by an enzyme label.

The target in experiment [2] is Tau oligomers (globular, 30% sucrose fraction), biotin-labelled (human, biotin). Briefly: cell surface binding assay (streptavidin-alkaline phosphatase staining); SH-SY5Y cells transfected with Lag3 or its deletion mutants; biotin-labelled ligand at different concentrations (monomer equivalent) in DMEM with 10% FBS, 2 h at RT; washed, fixed, bound biotin detected with streptavidin-AP and BCIP/NBT; intensity by ImageJ, KD by GraphPad Prism. Particulars: one partner purified.

For the next experiment, the target named is amyloid-β (Aβ) PFF. The description is as above. The conditions noted are these: one partner purified.

T1 sequence (P10636 other isoform, or with tags, fused parts or gaps): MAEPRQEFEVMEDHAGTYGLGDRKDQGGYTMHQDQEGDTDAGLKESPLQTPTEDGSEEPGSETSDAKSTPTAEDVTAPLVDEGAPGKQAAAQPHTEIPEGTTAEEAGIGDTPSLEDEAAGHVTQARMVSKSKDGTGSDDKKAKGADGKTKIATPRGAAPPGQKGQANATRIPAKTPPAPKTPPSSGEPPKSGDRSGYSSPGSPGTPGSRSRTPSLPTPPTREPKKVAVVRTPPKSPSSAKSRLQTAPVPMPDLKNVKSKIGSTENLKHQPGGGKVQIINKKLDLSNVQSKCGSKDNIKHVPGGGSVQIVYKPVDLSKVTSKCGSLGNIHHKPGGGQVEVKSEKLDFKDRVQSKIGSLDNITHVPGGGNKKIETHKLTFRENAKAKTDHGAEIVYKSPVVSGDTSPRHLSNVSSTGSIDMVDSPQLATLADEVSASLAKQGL

B1: human recombinant LAG3 (receptor)
chain: LQPGAEVPVVWAQEGAPAQLPCSPTIPLQDLSLLRRAGVTWQHQPDSGPPAAAPGHPLAPGPHPAAPSSWGPRPRRYTVLSVGPGGLRSGRLPLQPRVQLDERGRQRGDFSLWLRPARRADAGEYRAAVHLRDRALSCRLRLRLGQASMTASPPGSLRASDWVILNCSFSRPDRPASVHWFRNRGQGRVPVRESPHHHLAESFLFLPQVSPMDSGPWGCILTYRDGFNVSIMYNLTVLGLEPPTPLTVYAGAGSRVGLPCRLPAGVGTRSFLTAKWTPPGGGPDLLVTGDNGDFTLRLEDVSQAQAGTYTCHIHLQEQQLNATVTLAIITVTPKSFGSPGSLGKLLCEVTPVSGQERFVWSSLDTPSQRSFSGPWLEAQEAQLLSQPWQCQLYQGERLLGAAVYFTELSSPGAQRSGRAPGALPAGHL
One may read the Kd as the concentration at which binding is half-saturated. Turning to B1, in experiment [1], the Kd was 3 nM.

B2: Lag3 (lymphocyte-activation gene 3), on transfected SH-SY5Y cells (receptor, UniProt Q61790 24-521, looked up)
chain: GPGKELPVVWAQEGAPVHLPCSLKSPNLDPNFLRRGGVIWQHQPDSGQPTPIPALDLHQGMPSPRQPAPGRYTVLSVAPGGLRSGRQPLHPHVQLEERGLQRGDFSLWLRPALRTDAGEYHATVRLPNRALSCSLRLRVGQASMIASPSGVLKLSDWVLLNCSFSRPDRPVSVHWFQGQNRVPVYNSPRHFLAETFLLLPQVSPLDSGTWGCVLTYRDGFNVSITYNLKVLGLEPVAPLTVYAAEGSRVELPCHLPPGVGTPSLLIAKWTPPGGGPELPVAGKSGNFTLHLEAVGLAQAGTYTCSIHLQGQQLNATVTLAVITVTPKSFGLPGSRGKLLCEVTPASGKERFVWRPLNNLSRSCPGPVLEIQEARLLAERWQCQLYEGQRLLGATVYAAESSSGAHSARRISGDLKGGHLVLVLILGALSLFLLVAGAFGFHWWRKQLLLRRFSALEHGIQPFPAQRKIEELERELETEMGQEPEPEPEPQLEPEPRQL
notes: also called FL; Lag3-expressing SH-SY5Y cells; source: SH-SY5Y cells, transiently transfected (Lipofectamine 2000), on cells
For B2, the values for the Kd (in experiment [2]; with amyloid-β (Aβ) PFF) were 1300 nM and 310 nM, respectively.
